{"source": "paper PMC10844655", "about": "“G-quadruplexes promote the motility in MAZ phase-separated condensates to activate CCND1 expression and contribute to hepatocarcinogenesis”", "key": {"MAZ WT [1]": {"biological_target": "T1, MAZ WT (human, UniProt P56270 1-477)", "T1 sequence": "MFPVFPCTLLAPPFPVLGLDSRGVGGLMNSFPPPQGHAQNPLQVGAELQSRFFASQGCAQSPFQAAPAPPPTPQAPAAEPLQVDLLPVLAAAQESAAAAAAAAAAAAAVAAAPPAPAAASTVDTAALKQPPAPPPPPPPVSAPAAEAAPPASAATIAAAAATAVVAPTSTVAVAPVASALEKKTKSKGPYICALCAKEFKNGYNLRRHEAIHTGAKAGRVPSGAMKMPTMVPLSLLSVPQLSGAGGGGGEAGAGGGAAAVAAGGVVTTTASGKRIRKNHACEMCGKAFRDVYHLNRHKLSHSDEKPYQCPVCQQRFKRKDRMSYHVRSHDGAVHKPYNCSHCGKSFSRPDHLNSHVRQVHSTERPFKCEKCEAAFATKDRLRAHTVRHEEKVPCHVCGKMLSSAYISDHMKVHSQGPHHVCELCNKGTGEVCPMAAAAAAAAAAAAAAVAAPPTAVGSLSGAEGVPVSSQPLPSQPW", "assay": "EMSA; KCl-annealed; Binding buffer 250 mM HEPES, 500 mM KCl, 20 mM MgSO4, 10 mM DTT pH 8.0 (so in the source), on ice 30 min; G4 oligos annealed in 50 mM Tris-HCl, 50 mM KCl, 40% PEG200; 8% native PAGE (G4 gels with 100 mM KCl, 40% PEG200)", "conditions": "protein: recombinant, tags: His6 (also mCherry-His6 fusion), label: FAM"}, "MAZ WT [2]": {"biological_target": "T1, MAZ WT", "assay": "competition; unlabeled WT vs FAM-WT; Binding buffer 250 mM HEPES, 500 mM KCl, 20 mM MgSO4, 10 mM DTT pH 8.0 (so in the source), on ice 30 min; G4 oligos annealed in 50 mM Tris-HCl, 50 mM KCl, 40% PEG200; 8% native PAGE (G4 gels with 100 mM KCl, 40% PEG200)", "conditions": "protein: recombinant; tags: His6 (also mCherry-His6 fusion); label: FAM; G4 parallel, intra- and/or intermolecular"}, "MAZ(ZF3-4)": {"biological_target": "T2, MAZ(ZF3-4) (human, UniProt P56270 307-360)", "T2 sequence": "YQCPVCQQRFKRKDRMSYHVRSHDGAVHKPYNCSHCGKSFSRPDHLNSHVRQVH", "assay": "EMSA; Binding buffer 250 mM HEPES, 500 mM KCl, 20 mM MgSO4, 10 mM DTT pH 8.0 (so in the source), on ice 30 min; G4 oligos annealed in 50 mM Tris-HCl, 50 mM KCl, 40% PEG200; 8% native PAGE (G4 gels with 100 mM KCl, 40% PEG200)", "conditions": "protein: recombinant; tags: mCherry; His6; label: FAM; G4 parallel, intra- and/or intermolecular"}, "BRD4-IDR": {"biological_target": "BRD4-IDR (UniProt O60885 674-1351)", "assay": "EMSA; Binding buffer 250 mM HEPES, 500 mM KCl, 20 mM MgSO4, 10 mM DTT pH 8.0 (so in the source), on ice 30 min; G4 oligos annealed in 50 mM Tris-HCl, 50 mM KCl, 40% PEG200; 8% native PAGE (G4 gels with 100 mM KCl, 40% PEG200)", "conditions": "protein: recombinant, tags: EGFP, His6, label: FAM"}, "MAZ(ZF2-3)": {"biological_target": "T3, MAZ(ZF2-3) (human, UniProt P56270 279-329)", "T3 sequence": "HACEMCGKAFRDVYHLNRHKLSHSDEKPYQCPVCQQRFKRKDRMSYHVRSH", "assay": "EMSA; Binding buffer 250 mM HEPES, 500 mM KCl, 20 mM MgSO4, 10 mM DTT pH 8.0 (so in the source), on ice 30 min; G4 oligos annealed in 50 mM Tris-HCl, 50 mM KCl, 40% PEG200; 8% native PAGE (G4 gels with 100 mM KCl, 40% PEG200)", "conditions": "protein: recombinant; tags: mCherry; His6; label: FAM; G4 parallel, intra- and/or intermolecular"}, "MAZ(ZF2-4)": {"biological_target": "T4, MAZ(ZF2-4) (human, UniProt P56270 279-360)", "T4 sequence": "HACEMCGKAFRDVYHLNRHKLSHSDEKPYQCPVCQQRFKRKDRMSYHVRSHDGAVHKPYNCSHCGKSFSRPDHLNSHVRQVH", "assay": "EMSA; Binding buffer 250 mM HEPES, 500 mM KCl, 20 mM MgSO4, 10 mM DTT pH 8.0 (so in the source), on ice 30 min; G4 oligos annealed in 50 mM Tris-HCl, 50 mM KCl, 40% PEG200; 8% native PAGE (G4 gels with 100 mM KCl, 40% PEG200)", "conditions": "protein: recombinant; tags: mCherry; His6; label: FAM; G4 parallel, intra- and/or intermolecular"}, "MED1-IDR": {"biological_target": "MED1-IDR (UniProt Q15648 948-1574)", "sequence (Q15648 948-1574)": "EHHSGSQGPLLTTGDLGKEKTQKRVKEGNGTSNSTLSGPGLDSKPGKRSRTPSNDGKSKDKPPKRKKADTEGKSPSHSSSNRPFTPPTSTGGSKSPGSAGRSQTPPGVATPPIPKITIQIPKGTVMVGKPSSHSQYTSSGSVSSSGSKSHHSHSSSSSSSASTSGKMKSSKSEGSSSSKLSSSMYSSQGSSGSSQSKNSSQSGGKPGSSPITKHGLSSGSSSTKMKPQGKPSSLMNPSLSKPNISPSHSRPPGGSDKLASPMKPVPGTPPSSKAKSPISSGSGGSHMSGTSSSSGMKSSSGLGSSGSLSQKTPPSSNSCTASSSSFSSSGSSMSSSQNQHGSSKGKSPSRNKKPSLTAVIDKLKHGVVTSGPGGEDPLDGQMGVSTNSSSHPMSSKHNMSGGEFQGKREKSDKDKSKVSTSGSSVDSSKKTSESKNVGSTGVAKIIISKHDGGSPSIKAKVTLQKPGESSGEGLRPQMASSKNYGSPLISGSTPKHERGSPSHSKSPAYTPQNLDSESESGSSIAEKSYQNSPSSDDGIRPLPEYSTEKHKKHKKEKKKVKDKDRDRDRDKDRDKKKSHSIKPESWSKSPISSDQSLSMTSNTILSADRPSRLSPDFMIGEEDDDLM", "assay": "EMSA; Binding buffer 250 mM HEPES, 500 mM KCl, 20 mM MgSO4, 10 mM DTT pH 8.0 (so in the source), on ice 30 min; G4 oligos annealed in 50 mM Tris-HCl, 50 mM KCl, 40% PEG200; 8% native PAGE (G4 gels with 100 mM KCl, 40% PEG200)", "conditions": "protein: recombinant, tags: EGFP, His6, label: FAM"}, "MAZ(ZF4)": {"biological_target": "T5, MAZ(ZF4) (human, UniProt P56270 337-360)", "T5 chain": "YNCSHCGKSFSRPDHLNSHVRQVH", "assay": "EMSA; Binding buffer 250 mM HEPES, 500 mM KCl, 20 mM MgSO4, 10 mM DTT pH 8.0 (so in the source), on ice 30 min; G4 oligos annealed in 50 mM Tris-HCl, 50 mM KCl, 40% PEG200; 8% native PAGE (G4 gels with 100 mM KCl, 40% PEG200)", "conditions": "protein: recombinant; tags: mCherry; His6; label: FAM; G4 parallel, intra- and/or intermolecular"}, "MAZ WT [3]": {"biological_target": "T1, MAZ WT", "assay": "EMSA; Binding buffer 250 mM HEPES, 500 mM KCl, 20 mM MgSO4, 10 mM DTT pH 8.0 (so in the source), on ice 30 min; G4 oligos annealed in 50 mM Tris-HCl, 50 mM KCl, 40% PEG200; 8% native PAGE (G4 gels with 100 mM KCl, 40% PEG200)", "conditions": "protein: recombinant, tags: His6 (also mCherry-His6 fusion), label: FAM"}, "[4]": {"conditions": "G4 parallel, intra- and/or intermolecular"}}, "data": [{"binder": "CCND1-G4 Mut2 (structured_DNA) DNA: ATGGGAGCGAGAGGAGGGCGGGGGCGGACGCAGGAGGAGGGGGCGCGGGCG", "values": [{"measurement": "binding result", "setting": "MAZ WT [1]; intermolecular parallel G4", "result": "binds"}]}, {"binder": "CCND1-G4 WT (structured_DNA) DNA: ATGGGAGCGGGAGGGGGGCGGGGGCGGGCGCAGGGGGAGGGGGCGCGGGCG", "values": [{"measurement": "binding result", "setting": "MAZ WT [2]", "result": "binds"}, {"measurement": "binding result", "setting": "MAZ(ZF3-4)", "result": "no binding"}, {"measurement": "binding result", "setting": "BRD4-IDR; [4]", "result": "binds"}, {"measurement": "binding result", "setting": "MAZ(ZF2-3)", "result": "no binding"}, {"measurement": "binding result", "setting": "MAZ(ZF2-4)", "result": "binds"}, {"measurement": "binding result", "setting": "MED1-IDR; [4]", "result": "binds"}, {"measurement": "binding result", "setting": "MAZ(ZF4)", "result": "no binding"}]}, {"binder": "BS1 (dsDNA) DNA 1: AGGGGGAGGGGGCG DNA 2: CGCCCCCTCCCCCT", "values": [{"measurement": "binding result", "setting": "MAZ WT [3]; blunt", "result": "binds"}]}, {"binder": "GGGGCGCGGGGCGCGGGGCATGGGG (structured_DNA)", "note": "[MDM2-G4]", "values": [{"measurement": "binding result", "setting": "MAZ WT [3]; G4 antiparallel, 4 quartets", "result": "binds"}]}, {"binder": "TAGGGTTAGGGTTAGGGTTAGGGTTAG (structured_DNA)", "note": "[TEL-G4]", "values": [{"measurement": "binding result", "setting": "MAZ WT [3]; G4 hybrid, 3 quartets", "result": "binds"}]}, {"binder": "CCND1-G4 Mut1 (ssDNA) DNA: ATGAGAGCGAGAGAGAGACGAGAGCGAGCGCAGAGAGAGAGAGCGCGAGCG", "values": [{"measurement": "binding result", "setting": "MAZ WT [1]; no G4", "result": "no binding"}, {"measurement": "binding result", "setting": "BRD4-IDR; no G4", "result": "no binding"}, {"measurement": "binding result", "setting": "MED1-IDR; no G4", "result": "no binding"}]}, {"binder": "TGAGGGTGGGTAGGGTGGGTAA (structured_DNA)", "note": "[MYC-G4 (Table S2)]", "values": [{"measurement": "binding result", "setting": "MAZ WT [3]; G4 parallel, 3 quartets", "result": "binds"}]}, {"binder": "BS2 (dsDNA) DNA 1: AGCGGGAGGGGGGC DNA 2: GCCCCCCTCCCGCT", "values": [{"measurement": "binding result", "setting": "MAZ WT [3]; blunt", "result": "binds"}]}, {"binder": "GGAGGAGGAGGAGGAGGAGGAGGA (structured_DNA)", "note": "[MYB-G4]", "values": [{"measurement": "binding result", "setting": "MAZ WT [3]; 2 G4s with two quartets", "result": "binds"}]}, {"binder": "GGGCGCGGGAGGAATTGGGCGGG (structured_DNA)", "note": "[BCL2-G4]", "values": [{"measurement": "binding result", "setting": "MAZ WT [3]; G4 hybrid, 3 quartets", "result": "binds"}]}, {"binder": "BS3 (dsDNA) DNA 1: GGGGGGCGGGGGCG DNA 2: CGCCCCCGCCCCCC", "values": [{"measurement": "binding result", "setting": "MAZ WT [3]; blunt", "result": "binds"}]}]}
